Reference: paper PMC7894019

B1: WNT8BP(nt-1178) (dsDNA)
DNA 1: GATTATCATGCATTCATTGTATGCCTGTAT
DNA 2: ATACAGGCATACAATGAATGCATGATAATC
B2: WNT8BP(nt-1491) (dsDNA)
DNA 1: GTGAATTTGTGTATTAATTCTTTATTTTCT
DNA 2: AGAAAATAAAGAATTAATACACAAATTCAC

Molecular target: ZNF191 (purified recombinant) (UniProt P17028 1-368)
Assay: EMSA

ZNF191 (purified recombinant), sequence (P17028 whole entry): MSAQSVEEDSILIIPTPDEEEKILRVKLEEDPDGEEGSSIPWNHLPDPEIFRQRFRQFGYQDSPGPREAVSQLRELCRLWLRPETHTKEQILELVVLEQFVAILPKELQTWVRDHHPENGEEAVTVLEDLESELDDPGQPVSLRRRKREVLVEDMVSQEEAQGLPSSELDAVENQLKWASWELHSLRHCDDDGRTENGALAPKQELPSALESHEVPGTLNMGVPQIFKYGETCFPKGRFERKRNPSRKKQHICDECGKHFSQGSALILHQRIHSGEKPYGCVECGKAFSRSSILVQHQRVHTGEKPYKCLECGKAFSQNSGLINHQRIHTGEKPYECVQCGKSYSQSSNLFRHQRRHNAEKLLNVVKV

Binder | binding result
B1 | binds
B2 | binds
